In test [1] the target is HsFA1e^R126E in pGBKT7 (BD) (Arabidopsis thaliana) (UniProt Q9SCW5). The experiment in a line: two-hybrid; CRY1 as prey in pGADT7 (AD), HsF as bait in pGBKT7 (BD), co-transformed into yeast Y187; liquid beta-galactosidase assay with CPRG, Miller units; not detected (ND) if OD578 <0.01 after 3 h of color development.
For test [2], the target named is HsFA3 E188R in pGBKT7 (BD) (Arabidopsis thaliana) (UniProt Q8GYY1). The description is as above.
In test [3] the target is HsFA3 E188R in pGBKT7 (BD) (UniProt Q8GYY1). The experiment in a line: yeast two-hybrid (beta-galactosidase, Miller units). Conditions: n=3; parent: est. 270; read off a plot.
Sequence of HsFA3 E188R in pGBKT7 (BD) (Q8GYY1 whole entry E188R): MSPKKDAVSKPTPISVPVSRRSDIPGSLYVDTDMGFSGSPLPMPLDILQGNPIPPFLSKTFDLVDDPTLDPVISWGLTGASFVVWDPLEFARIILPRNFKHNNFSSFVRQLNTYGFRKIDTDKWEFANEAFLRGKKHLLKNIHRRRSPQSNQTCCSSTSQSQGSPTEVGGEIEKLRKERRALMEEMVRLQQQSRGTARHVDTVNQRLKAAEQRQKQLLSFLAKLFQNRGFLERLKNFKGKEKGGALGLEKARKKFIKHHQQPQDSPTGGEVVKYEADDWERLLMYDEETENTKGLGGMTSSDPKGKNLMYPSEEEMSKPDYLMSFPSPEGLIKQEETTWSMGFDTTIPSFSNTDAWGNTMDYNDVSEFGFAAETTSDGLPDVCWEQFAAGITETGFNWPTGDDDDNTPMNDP

Drawing on paper PMC12753876, this text covers fold increase of Y2H interaction relative to WT, reduction of Y2H interaction relative to WT and response for four substances.

Sequence of CRY1^(PHR WT) in pGADT7 (AD) (Q43125 1-508): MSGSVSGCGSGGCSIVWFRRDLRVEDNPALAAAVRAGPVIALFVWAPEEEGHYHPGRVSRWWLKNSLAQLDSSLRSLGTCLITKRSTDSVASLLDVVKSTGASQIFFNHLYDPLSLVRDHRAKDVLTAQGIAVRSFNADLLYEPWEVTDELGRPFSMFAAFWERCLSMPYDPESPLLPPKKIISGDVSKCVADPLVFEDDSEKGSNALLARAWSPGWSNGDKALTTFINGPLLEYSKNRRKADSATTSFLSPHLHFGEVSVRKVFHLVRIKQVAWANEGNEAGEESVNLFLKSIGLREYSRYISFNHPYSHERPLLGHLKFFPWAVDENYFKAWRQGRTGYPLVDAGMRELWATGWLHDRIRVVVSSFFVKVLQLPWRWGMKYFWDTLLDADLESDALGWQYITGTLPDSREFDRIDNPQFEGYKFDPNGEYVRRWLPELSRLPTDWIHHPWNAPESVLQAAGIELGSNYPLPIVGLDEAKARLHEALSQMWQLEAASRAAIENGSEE
Sequence of HsFA3 E188R in pGBKT7 (BD) (Arabidopsis thaliana) (Q8GYY1 whole entry E188R): as the sequence (Q8GYY1 whole entry E188R) above
Sequence of HsFA1e^R126E in pGBKT7 (BD) (Arabidopsis thaliana) (Q9SCW5 whole entry, stated change not applied): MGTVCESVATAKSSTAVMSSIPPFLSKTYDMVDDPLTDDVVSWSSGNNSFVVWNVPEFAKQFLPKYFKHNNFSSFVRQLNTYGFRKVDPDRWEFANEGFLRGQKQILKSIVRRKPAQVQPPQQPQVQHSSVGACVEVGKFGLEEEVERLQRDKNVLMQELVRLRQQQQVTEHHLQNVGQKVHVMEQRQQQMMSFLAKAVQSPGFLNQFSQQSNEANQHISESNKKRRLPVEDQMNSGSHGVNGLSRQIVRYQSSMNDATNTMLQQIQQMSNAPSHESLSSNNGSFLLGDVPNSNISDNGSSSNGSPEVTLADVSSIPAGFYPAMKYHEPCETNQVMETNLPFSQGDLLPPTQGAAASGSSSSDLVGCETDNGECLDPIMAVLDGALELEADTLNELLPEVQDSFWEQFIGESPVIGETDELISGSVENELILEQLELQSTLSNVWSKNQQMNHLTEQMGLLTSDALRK

On to “CRY1^(PHR WT) in pGADT7 (AD) (from UniProt Q43125 1-508) (domain or fragment)”, for which the fold increase of Y2H interaction relative to WT in test [1] came out at 40 fold. This substance yielded a reduction of Y2H interaction relative to WT in test [2] of 0.33.
As for “m1; m17 CRY1:R211E; CRY1:R435E; HsFA3:E188R”, the response in test [3] is 300 Miller Units.
Still for that read-out and setting: as for m1; m17 CRY1:R211E; HsFA3:E188R, the figure is 90 Miller Units.
On the same count and under the same terms, as for m1; m17 CRY1:R435E; HsFA3:E188R, the figure is 170 Miller Units.
